Target: [Lys]plasminogen (human)
Test: kinetics of conformational plasminogen activation

Work on “streptokinase ALAB49 SK2b variant with Tyr4 substituted by Pro (natural protein)” yielded a Kd of 600 nM.

Reference: article PMC4498406
